From the DeepSol protein solubility set come the findings set out here.

A short description of the data set: soluble on expression in E. coli; label from the status in PepcDB or PDB records.
Turning to “MAHHHHHHMENNNHGCNMHDDNFDLLMKKICNELKKGDKNKNGLIMYNTFIDVLDLFQIEYGSSIIDYLMKHCVVTEDGFVNYKNLWLIHDPSKTMRNNSESVEESINPKFMDIQDRYEDIDKYTQEKNEIIRKLYSQWDKCLLRDDEFKAKLINGNIDITPEFERSLYLYGPSRSLSFANVMKTLYINDSKNRKNRNNFVSKIKDEKWRKLNIDENEQQCFQDIHRNPIAWEGSNVTDADNLIQNVELISNYLRGEENVNMRKEEFISHDFFNNTVKNLIKNYISNKISESEFYLCLNKLNISVTPQLNNLIKCHELDSNGKFKDFATTINRCIPKNLLHSLQRRVQLYGAQKNDKDSKLNFSYNNCCCDRLCPNVTDDNPYSNENIDKH”, the “soluble on expression in E. coli” value is recorded as “not soluble”.
As to “MADSTPILFDRRLLAARLHRAAALGPAPFLLDRVAEEMDERLHAVLRDFTEVADLWTPGGLKLQRFPKLAHLAVDPSGSEALPFAPGSLDLVVSALALQFANDLPGVLAQLRRALKPDGLLLAALTGGETLTELRQAFASAEAEIEGGVSPRVAPAADLRDLGALLQRAGFALPVTDVDRVVVRYDHAFALMQDLRRMGATNVLIERRRTPLRRATLTRMAQIYADRFSDPDGRIRATFEIVWLSGWSPHESQQQPLKPGSAKVSLEEAVRGKRLEHHHHHH”, the “soluble on expression in E. coli” value is recorded as “not soluble”.
Consider “MGSDKIHHHHHHMTNVIIEKISAKEVFKGAKIKVMITTMTNISIGYDIIEVNNPEEAIADVENVIAPELIGYPATDIDFIDSLICETSVNNPTVAMGISISVARAASNSLDIPLFKFLGGALTTELPIVASGILVDKDKNELIPIVMADSIEDIVNLYLKLTDVLSHDYSIVNIDGAYTCKDIFNEIPKIRNLIDEIKEDEDLDILLGLSSKKETVKDKDLSQIDYLEVEEPVEFDGFLCTDSIYEESDFVKVFPYEMGTITEMYYYINYIMDKGLYPVIFGNNSSFAHIAVSFKVPFLRPKLSSNVLNEVWNIERTIMNPNIRRF”, for which the “soluble on expression in E. coli” value is listed as “not soluble”.
In the case of “MGSDKIHHHHHHGDIYNGTTMGVTFATGTQSVSFPSTGYEGFDVEVLRAKSSEATTINLSATLVVGDKEQELPASITVPSSVSFAAGEFKTNIHVTVGDITPGQNYKVKISLPEEMVTIDQTSDKVITVYRDYTFSSLGTGTFKSAAMAEEGEDFTTWEVEVQKADQISWYKAMNLYEKGYNIVFKVNEANEVTVESQPAWKHASYGEVFVSGKGALEDGVITVKLSHDVPNVGGFGEFKEILYLPAK”, the “soluble on expression in E. coli” value is listed as “not soluble”.
For “MFTDSTAKTVAPYTWKTDAGARATSTSDCIVLVLNGNNPIVADVQSCNADTTLPALGVMCGKRAWVY”, the “soluble on expression in E. coli” value was “soluble”.
The entry for “MGSDKIHHHHHHMAAKLFGIMMINVQSIELSIVNLRTLRQVERVRSDVSLGEDIYDQHTIDYDSVEQAAQALSGFVQIMNDYGVKDYHLWGSWSLSSANNADYIQDQLLVRTGLKIDWLSSSQETYLRSVAVAVHFPRFKQMITKPTYLLGINSGSVGISHYDQSNFVFSRSLRLGPVRIAEVLEDLQSSVPNYVEVLDDYISSQIVDFGRFLPGRRDQPSNVVMLGVAPFATLFRQQQSKAGVEELSKADFQALYEDVLNASDQYLMDKYEVDEEDVRLIVPELLLINELLQLTNAEKIWLGNVTVLDGLIIQEAIKLGYKKYNFNDQIVTAAKNIADRYNVEPKHRDLVTKFSLHLFDQLKPLHHLGKRERLLLQVAAIVHDVGSYIDPHQHYLHSDYILQATELMGLTDTEKRMVALISRYHSAQTPSKDIRHFGHLQVEQRLLVSKLSAILRIADALDDGRKQKIDKISVSIRNPRVIITCFAHDDLFLENWVFAQKAEFFKEVFGLTPVIKLRGVR” is “not soluble”; for “MGSDKIHHHHHHSEEIFNGQVTDGEHSGAQLNIVPTVSSESTETRAGFDPKTDWAAGDALGLFMYKSSGWGDAYPRYDAQNNKSTRQANGWSQASPVYLLVDKATIWAYYPYNQAVTDGTKIPVPINVGTSVDYMWGKSTNQVSVIETDARIPMKHALSQFVVRLKVSPEYHNDGNLTSAKLKATGAKFATTGTMNLNDGGKITFQPTSTELTWSPNTTVPAQGQQAVDYAAAIYPMTLAAGEVSLEVVIDGATYTYAIPQITWEAGKRYIYSITMRSNDAEIGGENGQSVTIEGWTSTEEDITLVPVK” it is “not soluble”; for “MAMTKLDATLAMLKELTDARGIAGNEREPREVMKKYIEPFADELSTDNLGSLVAKKVGEENGPKIMVAGHLDEVGFMITQIDDKGFLRFQTVGGWWSQVMLAQRVTIVTRKGDVTGVIGSKPPHILPPEARKKPVEIKDMFIDIGASSQEEAMEWGVRPGDQVVPYFEFQVMKNEKMLLAKAWDNRIGCAIAIDVLKQLKDEKHPNVVYGVGTVQEEVGLRGAKTSANYIKPDIAFAVDVGIAGDTPGVTSKEAQSKMGDGPQIILYDASVIGHTGLRDFVVDVADELQIPYQYDSVAGGGTDAGAIHIAVNGIPSMAITIATRYIHSHAAMLHRDDYENAVKLIVEVIKRLDKEAVHNITFN” it is “not soluble”.
For “MATQQPALVLDPTGADHHTEHRTLREGGPATWVDVLGVQAWSVSDPVLLKQLLTSSDVSKDARAHWPAFGEVVGTWPLALWVAVENMFTAYGPNHRKLRRLVAPAFSARRVDAMRPAVEAMVTGLVDRLAELPAGEPVDLRQELAYPLPIAVIGHLMGVPQDRRDGFRALVDGVFDTTLDQAEAQANTARLYEVLDQLIAAKRATPGDDMTSLLIAARDDEGDGDRLSPEELRDTLLLMISAGYETTVNVIDQAVHTLLTRPDQLALVRKGEVTWADVVEETLRHEPAVKHLPLRYAVTDIALPDGRTIARGEPILASYAAANRHPDWHEDADTFDATRTVKEHLAFGHGVHFCLGAPLARMEVTLALESLFGRFPDLRLADPAEELPPVPSLISNGHQRLPVLLHAG”, the “soluble on expression in E. coli” value is “soluble”.
Turning to “MDYRIRTSRDEDAALLPAIERSAGESFRLLPELAWIADAGVAGVDFHRRLIERGSHWLAEDADGQPVGFLAAERCADELHIAELSIAQAHQQQGLGRRLLERAVTYAHASHCRALTLTTFCDVPWNAPFYARLGFQRLTWQEAGERLRAILGHEQEIGFAADSRCAMRLVL”, the “soluble on expression in E. coli” value was “not soluble”.
Consider “MRLHARSPRVESGRYGWLLDSVVDERRRHRMSFLRLGRNGMSEFERPTDHSLGRCGQVLCVTRGVSSRAPRRSAETGVSVATPATVAAHISVWQYEAMSAYAALAEPHRRQILDLLREGERPAGELVERIALSQPGVSKHLKVLREAGLVVVRADGKQRLYALRPEPLAEVDRWLEPYRAYWSRRLDALERHLEENP”, for which the “soluble on expression in E. coli” value was “not soluble”.
The entry for “MKAKPSHQATSMSSSLRVSPSIHGYHFDTAARKKAVGNIFENIDQESLQRLFRNSGDKKAEERAKIIFAIDQDLEEKTRALMALKKRTKDKLLQFLKLRKYSIKVH” is “not soluble”.
Turning to “MANQHFAKEAPETYWKTSTDLPSFPALQEDTECDVTIIGGGITGITTAYELTKRGFRVVLIEANQVLNGTTAHTTAKVTAQHDMIYDEFIRHFGLNHARLYYEANQNAIDYIKGIVDEHQIDCEWIEQDAYLYTANENAVQKIHTEHEAYTKLGIERDLIKDLPIPLGSKLALVMKNQAQFHPLQYLKALLEQIVQKGGRIYEETVALDIKKGERPEVVTKSRHAIKSRFIICCSHFPFYDGGGLYAARMYSDRSYVLAIKPKIEYPEGMYLSIDQPSVALRYTVVNGEKLILFSGVSHKTGQGKAMSTHYETLRQLAESTIGIESIPYYWSTQDLVTIDKIPFIGPMSENEDNILVATGFKKWGMTSSAVAATLLSDLVEKKENPYESIFTPSRFHLNPGLQKVISYNADVAKHLIKGKLEKPDVQFEDISPGEGKAVTINGRRAGAFRDETGCLHLVDTTCTHLGCEVEWNDSEHTWDCPCHGSRFKPSGEVVEGPAIKPLKQIDLDLEHHHHHH”, the “soluble on expression in E. coli” value is on record as “soluble”.
As for “MGSDKIHHHHHHMEELFTYKEFIKMMQNYGIRHKKRKLRRNENVMTNSSSPNSVILLIKGYICSYTCESPETLLSVFEPGVFLSYSILEDLPPLVTNIALSEECIVYEYEKEDIEYALSLFPENFGFQYFFLKKIGRHLYYKALLNAKDHQEKLYYTIKYLGKLIGEKDGKGNIVLPPEITIKILIEYSTLSKAAFYRQRIRLIEEEILKPHKKTFLVPKKVVKHYEKQLTSI”, the “soluble on expression in E. coli” value is given as “not soluble”.
For the sequence “KATRDSSTLNVDTYVNWIKRVFRPQRLRLLERKELVVEEADYEYALGEIANVRSDAQQMLGSRIMSRPLPFIWLFGGDLSSQKELSVRVDTMVEYLHNTTDNLIFAKLMDVPPLPTTLSHWLPKDKRS”, the “soluble on expression in E. coli” value is recorded as “not soluble”.
For the sequence “MSLGDKKYVKRLLGSCWDYPFSGSGVGITEREAVLRAFGEYTERFIGMYYQFIARDKMIFATYRDLDKMGLNALSPHSIQLFHKRQYQQKDFPYSKFCEDSLIKWMPGKSLITNEEVYVPASFVLTPYIPERGENLISPSVTTGSAAHSNLTQAIINGIYEVIERDTARIYWYGNLRSTKLKVDNKDIKDFIDFIKNKKDIEVIITYMENDLNIPTFMASIIIGKNNRKSVVTGLSSNINPINGLKKAITEAFHTYLWKLLTQPSPKQQLENFTDHVALYLDPKMYIHFIDFINSNEELSLQSLILASAVYSFDSAERHLNMLIRLLKNKVLDLIVVDITPEILRKTGIHVVKVIIPPLLSILAGHIQYLGDKRLYNEGHHHHHH”, the “soluble on expression in E. coli” value was “not soluble”.
As for “MSLVLVKAMARIVMKFGGTSVANLERIHNVARHVKREVDAGHEVAVVVSAMSGKTNELVDWVQNAAKVAGTNAASFYDAREYDAVVASGEQVTSGLLAITLQSMGINARSWQGWQIPIRTDNAHGAARILEIDGSDIVHRMGEGQVAVVAGFQGIGPDNRIATLGRGGSDTSAVAIAAAVKADRCDIYTDVDGVYTTDPRIEPKARRMKKIAFEEMLEMASLGAKVLQVRSVELAMVHKVRTFVRSSFEDPDAPGMGDLINPPGTLICDEDEIVEQEVVTGIAYAKDEAQISLRRVADRPGVSAAIFGPLAEAHINVDMIVQNISEDGSRTDMTFTVPSGDVAKALRVLDENKGQIGFDVAQNETGLAKVSVIGIGMRSHAGVAASAFKALAEKNINIKAITTSEIKISILIDGAYAELAVRTLHSAYGLDKAEGHHHHHH”, the entry is “not soluble”; as for “GKPKTDTDFQTYNGDGFKLQIPSKWNPNKEVEYPGQVLRFEDNFDATSNVIVAITPTDKKSITDFGSPEQFLSQVDYLLGRQAYSGKTDSEGGFESDAVAIANVLETSTAEVGGKQYYYLSILTRTADGNEGGKHQLVTATVNDGKLYICKAQAGDKRWFKGAKKFVENTATSFSLA”, “soluble”.
As for “MAVAALKALLPPERLRRLTPLGGFEARVYTDGERVYKVYRKEEAHLAGLEARRMARAGFGSLVLAVIQGAEGGVLVTRRFPGRPFAPEAFTSKTLAALSHLFLALHRLPEPGKVTQEELLSRLERFAESLHDQPEALSLVQALKREVGLAAGVERRFCHRDAWAGNLLLKAPEAEGPEVFLVDWARAGGDDPARDLALLKTGSLDLLGEEAARAALFRMARLYPKEVRERLAFYVPLTYLHDLHWFRTKEPQGFPQALEEKLPKALAFFRDFFPRRGAW”, the entry is “soluble”.
